Patent US12030929B2, “Fusobacterium nucleatum amyloid-like FadA for diagnosis and treatment of Fn-mediated pathogenesis” (The Trustees of Columbia University in the City of New York, priority 2021, dated 2024)

Tests used:
[1] = test system: Fn binding to human CRC cells DLD1; assay: Cell culture attachment assay, DLD1; assay type: cell-based; conditions: 50 μg FadAc pre-incubated with DLD1 for 45 min
[2] = test system: anti-amyloid fibril antibody OC; assay: Slot blot assay with anti-amyloid fibril antibody OC; assay type: binding; conditions: 10 μg recombinant protein; OC at 1:5,000 dilution
Experimental: (§1) FIG. 2A-2G. Pre-FadA as a key component of amyloid-like FadA. 2A. Single-letter amino acid (aa) sequence of FadA (SEQ ID NO:28). The intact pre-FadA consists of 129 aa, with the first 18-aa (top row) constitute the signal peptide. The remaining 111 aa constitute mFadA. The residues that are replaced in the mutant proteins used in this study are shown in red. 2B. Analysis of detergent resistant recombinant FadA polymers expressed in E. coli. An aliquot of 50 μg detergent-resistant pellets prepared from E. coli BL21(DE3) carrying the cloning vector pET21(b), pYWH417-6 (p_FadAc), or pYWH418 (p_mFadA) were analyzed by SDD-AGE, followed by Western blot analysis. FadA polymers were only detected in E. coli expressing FadAc, but not in mFadA or the vector control. 2C. Reactivity of recombinant FadA and its variants with anti-amyloid fibril antibody OC. A total of 10 μg each of recombinant protein mFadA, FadAc, FadA-L-9A, FadA-L14A, FadA-S71A, and FadA-L76A purified from E. coli was slot-blotted onto nitrocellulose and incubated with polyclonal OC antibody at 1:5,000 dilution. Amyloid-like recombinant Rim4 (Berchowitz et al., 2015) was used as a positive control and histone H1 was used as a negative control. Ponceau stain (pink color) is shown as a loading control. 2D. Thioflavin-T binding assay. FadA proteins at indicated concentrations were incubated with 10 μM Thioflavin-T at room temperature for 10 min. The fluorescent intensity was measured at excitation wavelength of 440 nm and emission wavelength of 500 nm. The experiment was performed in duplicate and repeated three times. *p<0.05, **p<0.01, ***p<0.001 (compared to BSA, t-test). 2E. Thioflavin-T binding assay in the presence of 0.1% SDS. FadA proteins (0.8 mg/ml) were incubated with 10 μM Thioflavin-T at room temperature for 10 min. The fluorescent intensity was measured at excitation wavelength of 440 nm and emission wavelength of 500 nm. The experiment was performed in duplicate and repeated three times. *p<0.05, **p<0.01 (compared to BSA, t-test). 2F. Western blot analysis of Fn12230 (Fn), fadA-deletion mutant US1 (ΔfadA) and spontaneous mutant lam following SDS-PAGE. A total of 400 μl of each culture grown to OD600 of 1.0 was pelleted and loaded onto 12% SDS-PAGE. FadA protein was detected using anti-FadA mAb 7H7 at 1:4,000 dilution. […] 2G. Analysis of amyloid-like FadA produced by Fn 23726 and its Δfap2 mutant. An aliquot of 50 μg detergent-resistant pellets was loaded onto each lane, followed by SDD-AGE and Western blot analysis as described above.
(§2) Slot blot assay. Ten micrograms each of purified recombinant protein was slot-blotted onto nitrocellulose membrane (BioRad) and assayed for reactivity with polyclonal anti-amyloid fibril antibodies OC (α-amyloid fibril OC, Sigma-Aldrich CAT #AB2286) at 1:5,000 dilution and goat-anti-rabbit IgG (GE Healthcare) at 1:10,000 dilution, or polyclonal anti-amyloid oligomer antibody A11 (α-oligomer A11 at 1:5,000 dilution, ThermoFisher Scientific CAT #AHB0052) and goat-anti-rabbit IgG at 1:10,000 dilution, followed by detection with ECL Prime (GE Healthcare). Amyloid-like recombinant Rim4 was used as a positive control (Berchowitz et al., 2015) and histone H1 was used as a negative control. Loading was assessed by Ponceau stain (Sigma CAT #P7170).

[3] = test system: anti-amyloid oligomer antibody A11; assay: Slot blot assay with anti-amyloid oligomer antibody A11; assay type: binding; conditions: 10 μg recombinant protein; A11 at 1:5,000 dilution
Experimental: FIG. 8A-8C. 8A. SDS-PAGE analysis of recombinant FadAc and its variants. The proteins were purified as previously described (Xu et al., 2007). Approximately 2.5 μg of each purified protein were loaded onto 12% SDS-PAGE. Following electrophoresis, the gel was stained with Coomassie Blue G-250. 8B. Reactivities of recombinant FadA and its variants with anti-amyloid oligomer antibody A11. A total of 10 μg each of recombinant protein mFadA, FadAc, FadA-L-9A, FadA-L14A, FadA-S71A, and FadA-L76A purified from E. coli was slot-blotted onto nitrocellulose and incubated with polyclonal anti-amyloid oligomer antibody A11 at 1:5,000 dilution. Amyloid-like recombinant Rim4 (Berchowitz et al., 2015) was used as a positive control and histone H1 was used as a negative control. Ponceau stain (pink color) is shown as a loading control. 8C. Western blot analysis of wild-type Fn 23726 (1) and mutants Δfap2 (2) using anti-FadA mAb 7H7. The bottom panel is Coomassie blue stain for loading control.
as §2

[4] = Thioflavin-T binding assay; conditions: 10 μM Thioflavin-T; for Thioflavin-T binding in the presence of 0.1% SDS: FadA proteins 0.8 mg/ml; for Thioflavin-T binding: without SDS, 10 min
Experimental: as §1
Thioflavin-T binding assay. Thioflavin-T assay was conducted as previously described (Tukel et al., 2009). A mixture of 50 μl of FadA proteins and 50 μl of 10 μM Thioflavin-T was added to a black 96-well plate and incubated for 10 min at room temperature. After incubation, the fluorescence intensity was determined using a SpectraMax M5 microplate reader at excitation wavelength of 440 nm and emission wavelength of 500 nm. For SDS stability test, the FadA proteins were pre-incubated in 0.1% SDS for 30 min at room temperature, followed by Thioflavin-T binding assay as described above.

[5] = SDD-AGE and Western blot of detergent-resistant polymers; assay type: physicochemical; conditions: expressed in E. coli; SDD-AGE, Western blot with mAb 7H7
Experimental: FIG. 2A-2G. Pre-FadA as a key component of amyloid-like FadA. 2A. Single-letter amino acid (aa) sequence of FadA (SEQ ID NO:28). The intact pre-FadA consists of 129 aa, with the first 18-aa (top row) constitute the signal peptide. The remaining 111 aa constitute mFadA. The residues that are replaced in the mutant proteins used in this study are shown in red. 2B. Analysis of detergent resistant recombinant FadA polymers expressed in E. coli. An aliquot of 50 μg detergent-resistant pellets prepared from E. coli BL21(DE3) carrying the cloning vector pET21(b), pYWH417-6 (p_FadAc), or pYWH418 (p_mFadA) were analyzed by SDD-AGE, followed by Western blot analysis. FadA polymers were only detected in E. coli expressing FadAc, but not in mFadA or the vector control. 2C. Reactivity of recombinant FadA and its variants with anti-amyloid fibril antibody OC. A total of 10 μg each of recombinant protein mFadA, FadAc, FadA-L-9A, FadA-L14A, FadA-S71A, and FadA-L76A purified from E. coli was slot-blotted onto nitrocellulose and incubated with polyclonal OC antibody at 1:5,000 dilution. […] The fluorescent intensity was measured at excitation wavelength of 440 nm and emission wavelength of 500 nm. […] The fluorescent intensity was measured at excitation wavelength of 440 nm and emission wavelength of 500 nm. […] FadA protein was detected using anti-FadA mAb 7H7 at 1:4,000 dilution. […]

[6] = Circular dichroism (CD) test; assay type: physicochemical; conditions: wavelength range 190-250 nm; 0.2 mg/ml protein
Experimental: Circular dichroism (CD) test. CD was used to evaluate the secondary structure of FadA and its mutants. One hundred microliter of 0.2 mg/ml purified FadA was analyzed by Chirascan V100 Spectrometer using a 1 mm path-length fused quartz cell. The measurements are an average of three scans for each sample, captured at a scan rate of 1 sec., bandwidth and step size of 1 nm, over a wavelength range of 190-250 nm. CD spectra were recorded and analyzed with BestSel server (see www at bestsel.elte.hu/).

HCT116 xenograft tumors = conditions: shown previously (Rubinstein et al., 2013); cited from earlier work

B1: FadAc: recombinant active heterogeneous complex of pre-FadA and mFadA (protein)
chain 1: MKKFLLLAVLAVSASAFAATDAASLVGELQALDAEYQNLANQEEARFNEERAQADAARQALAQNEQVYNELSQRAQRLQAEANTRFYKSQYQELASKYEDALKKLEAEMEQQKAVISDFEKIQALRAGN
chain 2: ATDAASLVGELQALDAEYQNLANQEEARFNEERAQADAARQALAQNEQVYNELSQRAQRLQAEANTRFYKSQYQELASKYEDALKKLEAEMEQQKAVISDFEKIQALRAGN
inhibition of Fn binding to DLD1 [1]: effectively inhibited | reactivity with anti-amyloid fibril antibody OC [2]: reacted | reactivity with anti-amyloid oligomer antibody A11 [3]: reacted | Thioflavin-T binding in the presence of 0.1% SDS [4]: bound Thioflavin-T | formation of detergent-resistant polymers [5]: formed detergent-resistant polymers | α helix (%) [6]: 47.2% | β strand (%) [6]: 9.6% | stimulation of xenograft tumor growth (HCT116 xenograft tumors): stimulated xenograft tumor growth

B2: mFadA: cleaved mature form of FadA, 111 aa residues without the signal peptide (protein)
chain: ATDAASLVGELQALDAEYQNLANQEEARFNEERAQADAARQALAQNEQVYNELSQRAQRLQAEANTRFYKSQYQELASKYEDALKKLEAEMEQQKAVISDFEKIQALRAGN
reactivity with anti-amyloid fibril antibody OC [2]: not with the anti-fibril OC | reactivity with anti-amyloid oligomer antibody A11 [3]: reacted weakly | Thioflavin-T binding in the presence of 0.1% SDS [4]: did not bind Thioflavin-T | Thioflavin-T binding [4]: bound more Thioflavin-T than FadAc | formation of detergent-resistant polymers [5]: did not form polymers | α helix (%) [6]: 27.9% | β strand (%) [6]: 18.8% | stimulation of xenograft tumor growth (HCT116 xenograft tumors): not

B3: L14A (protein)
chain: ATDAASLVGELQAADAEYQNLANQEEARFNEERAQADAARQALAQNEQVYNELSQRAQRLQAEANTRFYKSQYQELASKYEDALKKLEAEMEQQKAVISDFEKIQALRAGN
reactivity with anti-amyloid fibril antibody OC [2]: did not react | reactivity with anti-amyloid oligomer antibody A11 [3]: did not react | Thioflavin-T binding [4]: did not bind Thioflavin-T | α helix (%) [6]: 44.2% | β strand (%) [6]: 11.6%

B4: L76A (protein)
chain: ATDAASLVGELQALDAEYQNLANQEEARFNEERAQADAARQALAQNEQVYNELSQRAQRLQAEANTRFYKSQYQEAASKYEDALKKLEAEMEQQKAVISDFEKIQALRAGN
reactivity with anti-amyloid fibril antibody OC [2]: did not react | reactivity with anti-amyloid oligomer antibody A11 [3]: did not react

B5: S71A (protein)
chain 1: MKKFLLLAVLAVSASAFAATDAASLVGELQALDAEYQNLANQEEARFNEERAQADAARQALAQNEQVYNELSQRAQRLQAEANTRFYKSQYQELASKYEDALKKLEAEMEQQKAVISDFEKIQALRAGN
chain 2: ATDAASLVGELQALDAEYQNLANQEEARFNEERAQADAARQALAQNEQVYNELSQRAQRLQAEANTRFYKAQYQELASKYEDALKKLEAEMEQQKAVISDFEKIQALRAGN
reactivity with anti-amyloid fibril antibody OC [2]: reacted | reactivity with anti-amyloid oligomer antibody A11 [3]: reacted | Thioflavin-T binding in the presence of 0.1% SDS [4]: bound Thioflavin-T | α helix (%) [6]: 49.1% | β strand (%) [6]: 8%
